{
  "source": "paper PMC3466315",
  "about": "“Influence of PAS Domain Flanking Regions on Oligomerisation and Redox Signalling By NifL” (PLoS ONE, 2012)",
  "key": {"[1]": {"target": "the molecule itself", "experiment": "SEC; Superose 12 10/300 GL, 0.5 ml/min, 50 mM Tris-HCl, 10% v/v glycerol, 200 mM NaCl, pH 8.0; protein at 106 µM (in monomeric terms); 1-140 constructs; self-association"}, "[2]": {"target": "the molecule itself", "experiment": "SEC; Superose 12 10/300 GL, 0.5 ml/min, 50 mM Tris-HCl, 10% v/v glycerol, 200 mM NaCl, pH 8.0; 1-162 constructs at the highest injected concentration, 424 µM; self-association"}, "[3]": {"target": "the molecule itself", "experiment": "SEC; Superose 12 10/300 GL, 0.5 ml/min, 50 mM Tris-HCl, 10% v/v glycerol, 200 mM NaCl, pH 8.0; 1-162 constructs at five different protein concentrations; self-association, dimer-tetramer equilibrium"}, "[4]": {"target": "the molecule itself", "experiment": "SEC; Superose 12 10/300 GL, 0.5 ml/min, 50 mM Tris-HCl, 10% v/v glycerol, 200 mM NaCl, pH 8.0; 1-162 constructs of Table S1, protein concentration not given; self-association"}},
  "data": [
    {"protein": "NifL PAS1 domain construct, residues 1-140 (domain or fragment, Azotobacter vinelandii, UniProt P30663 1-140, looked up, NifL, Azotobacter vinelandii, residues 1-140 (PAS1 domain with the N-terminal flanking region, without the C-terminal linker helix); PAS1 carries an FAD cofactor; also called NifL(1-140); 1-140 PAS1 domain construct; source: E. coli BL21(DE3)pLysS, purified; not shown: hexa-histidine-containing tag (26 additional residues, from the vector pETNdeM-11), N-terminal, kept) MTPANPTLSNEPQAPHAESDELLPEIFRQTVEHAPIAISITDLKANILYANRAFRTITGYGSEEVLGKNESILSNGTTPRLVYQALWGRLAQKKPWSGVLVNRRKDKTLYLAELTVAPVLNEAGETIYYLGMHRDTSELH", "values": [
      {"measurement": "stoichiometry N", "setting": "[1]", "value": "~4"}
    ]},
    {"protein": "NifL(1-162) ΔN147-L151 (domain or fragment, Azotobacter vinelandii, UniProt P30663 1-162, looked up, NifL, Azotobacter vinelandii, residues 1-162 with N147-L151 of the linker helix deleted; also called construct lacking residues N147-L151; source: E. coli BL21(DE3)pLysS, purified) MTPANPTLSNEPQAPHAESDELLPEIFRQTVEHAPIAISITDLKANILYANRAFRTITGYGSEEVLGKNESILSNGTTPRLVYQALWGRLAQKKPWSGVLVNRRKDKTLYLAELTVAPVLNEAGETIYYLGMHRDTSELHELEQRVMIEAVVNAAPA", "values": [
      {"measurement": "stoichiometry N", "setting": "[2]", "value": 3.6, "unit": "monomers"}
    ]},
    {"protein": "NifL PAS1 construct with the N-terminal region and the C-terminal linker helix, residues 1-162 (domain or fragment, Azotobacter vinelandii, UniProt P30663 1-162, looked up, NifL, Azotobacter vinelandii, residues 1-162 (PAS1 with both flanking regions); PAS1 carries an FAD cofactor; also called NifL(1-162); 1-162 construct; source: E. coli BL21(DE3)pLysS, purified) MTPANPTLSNEPQAPHAESDELLPEIFRQTVEHAPIAISITDLKANILYANRAFRTITGYGSEEVLGKNESILSNGTTPRLVYQALWGRLAQKKPWSGVLVNRRKDKTLYLAELTVAPVLNEAGETIYYLGMHRDTSELHELEQRVNNQRLMIEAVVNAAPA", "values": [
      {"measurement": "stoichiometry N", "setting": "[3]", "value": "~2"},
      {"measurement": "stoichiometry N", "setting": "[4]", "value": 2.5, "unit": "monomers"},
      {"measurement": "stoichiometry N", "setting": "[2]", "value": 2.8, "unit": "monomers"}
    ]},
    {"protein": "NifL(1-162) ΔL151 (domain or fragment, Azotobacter vinelandii, UniProt P30663 1-162, looked up, NifL, Azotobacter vinelandii, residues 1-162 with L151 of the linker helix deleted; source: E. coli BL21(DE3)pLysS, purified) MTPANPTLSNEPQAPHAESDELLPEIFRQTVEHAPIAISITDLKANILYANRAFRTITGYGSEEVLGKNESILSNGTTPRLVYQALWGRLAQKKPWSGVLVNRRKDKTLYLAELTVAPVLNEAGETIYYLGMHRDTSELHELEQRVNNQRMIEAVVNAAPA", "values": [
      {"measurement": "binding result", "setting": "[3]", "value": "binds"}
    ]},
    {"protein": "NifL PAS1 domain construct, residues 21-140 (domain or fragment, Azotobacter vinelandii, UniProt P30663 21-140, looked up, NifL, Azotobacter vinelandii, residues 21-140; also called construct lacking the entire N-terminal extension; source: E. coli BL21(DE3)pLysS, purified; not shown: hexa-histidine-containing tag (26 additional residues, from the vector pETNdeM-11), N-terminal, kept) ELLPEIFRQTVEHAPIAISITDLKANILYANRAFRTITGYGSEEVLGKNESILSNGTTPRLVYQALWGRLAQKKPWSGVLVNRRKDKTLYLAELTVAPVLNEAGETIYYLGMHRDTSELH", "values": [
      {"measurement": "stoichiometry N", "setting": "[1]", "value": 2}
    ]},
    {"protein": "NifL(1-162) ΔR150-L151 (domain or fragment, Azotobacter vinelandii, UniProt P30663 1-162, looked up, NifL, Azotobacter vinelandii, residues 1-162 with R150-L151 of the linker helix deleted; source: E. coli BL21(DE3)pLysS, purified) MTPANPTLSNEPQAPHAESDELLPEIFRQTVEHAPIAISITDLKANILYANRAFRTITGYGSEEVLGKNESILSNGTTPRLVYQALWGRLAQKKPWSGVLVNRRKDKTLYLAELTVAPVLNEAGETIYYLGMHRDTSELHELEQRVNNQMIEAVVNAAPA", "values": [
      {"measurement": "binding result", "setting": "[3]", "value": "binds"}
    ]},
    {"protein": "NifL 1-162 PAS1 construct after removal of the first 20 residues (domain or fragment, Azotobacter vinelandii, UniProt P30663 21-162, looked up, NifL, Azotobacter vinelandii; the 1-162 construct without its first 20 residues; The limits are worked out from 'removal of the first 20 residues' of the 1-162 construct; source: E. coli BL21(DE3)pLysS, purified) ELLPEIFRQTVEHAPIAISITDLKANILYANRAFRTITGYGSEEVLGKNESILSNGTTPRLVYQALWGRLAQKKPWSGVLVNRRKDKTLYLAELTVAPVLNEAGETIYYLGMHRDTSELHELEQRVNNQRLMIEAVVNAAPA", "values": [
      {"measurement": "stoichiometry N", "setting": "[4]", "value": 2}
    ]}
  ]
}
